According to publication PMC10730160 (mAbs, 2023):

Legend:
[1] = molecular target: mouse CTLA-4, on CHO-K1 cells (Mus musculus, UniProt P09793); experiment: ELISA
[2] = molecular target: human CTLA-4, wild type, on CHO-K1 cells (human, UniProt P16410); experiment: flow cytometry on cells
[3] = molecular target: CTLA-4 antigen (in solution, for HDX-MS and cross-linking) (human, UniProt P16410); experiment: HDX-MS
CTLA-4 antigen (in solution, for HDX-MS and cross-linking), sequence (P16410 36-223): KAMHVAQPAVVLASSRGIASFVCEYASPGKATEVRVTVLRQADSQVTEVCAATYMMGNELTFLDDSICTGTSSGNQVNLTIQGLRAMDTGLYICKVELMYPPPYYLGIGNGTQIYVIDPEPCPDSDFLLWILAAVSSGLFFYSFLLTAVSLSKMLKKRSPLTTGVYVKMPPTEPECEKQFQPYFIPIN

human CTLA-4, wild type, on CHO-K1 cells, sequence (P16410 36-223): as above

- binding result [1]: no binding
- binding result [2]: binds
- binding result [3]: binds
B1: tremelimumab (antibody, V domains shown)
VH: QVQLVESGGGVVQPGRSLRLSCAASGFTFSSYGMHWVRQAPGKGLEWVAVIWYDGSNKYYADSVKGRFTISRDNSKNTLYLQMNSLRAEDTAVYYCARDPRGATLYYYYYGMDVWGQGTTVTVSS
VL: DIQMTQSPSSLSASVGDRVTITCRASQSINSYLDWYQQKPGKAPKLLIYAASSLQSGVPSRFSGSGSGTDFTLTISSLQPEDFATYYCQQYYSTPFTFGPGTKVEIK
